B1: Hammerhead Ribozyme (parent)
chain: ACCGGAUGUGCUUUCCGGUCUGAUGAGUCCGUGAGGACGAAACAG

Variants of: B1
Assay: self-cleavage, relative activity (ratio to wild type); higher = more cleavage; co-transcriptional

Variant | self-cleavage
ACCGGAUGUGCUUUCCGGUCUGAUGAGUCCGUUAGGACAAAACAG | 0.341
ACUGGAUGUGCUUUCCGGUGUGAUGAGUCCGUGAGGACGAAACAG | 0.306
ACCGGAUGUGCUUUCCGGUCCGAUGAGUCCGUGAAGACGAAACAG | 0.741
ACCGGAUGUUCUUUCCGGUCUGAUGAGUCCGUGAGGGCGAAACAG | 0.877
ACCGGAAGUGCUUUCCGGUCUGAUCAGUCCGUGAGGACGAAACAG | 0.279
ACCGGAUAUGCUUUCCGGUCGGAUGAGUCCGUGAGGACGAAACAG | 0.4
ACCGGGUGUGCUUUCCGGUCUGAUGAGUCCGUGAGGACCAAACAG | 0.297
ACCGGAUGUGCUUUCCGGUCUGAUGAGUCUGUGAGGACGAAACGG | 1.36
ACCGGAUGUGCUUUCCGGUCUGAUGAGUCCGUUAGGACGAAACGG | 1.44
ACCAGAUGUGCUUUCCGGUCUGGUGAGUCCGUGAGGACGAAACAG | 0.272
GCCGGAUGUGCUUUCCGUUCUGAUGAGUCCGUGAGGACGAAACAG | 0.894
ACCGGAUGUGCAUUCCGGUCUGAUGAGUCCGUGAGGACGAAAUAG | 0.392
ACCGGCUGUGCUUUCCGGUCUGAGGAGUCCGUGAGGACGAAACAG | 0.511
ACCGGAUUUGCUUGCCGGUCUGAUGAGUCCGUGAGGACGAAACAG | 0.94
ACCGGAUGUGCUUUCCGGCCUGAUGAGUCCGUGAGGACGAAAUAG | 0.376
ACCGGAUGUGCUUUCCGGUCUGAUGAGUCGGUGAGCACGAAACAG | 0.441
ACCGGAUGUGAUUUCCGGGCUGAUGAGUCCGUGAGGACGAAACAG | 0.392
AACGGAUGUGCUUUCCGGUCUGAUGAGUCCGUGAGGUCGAAACAG | 0.368
ACCGGAUGUGCUUUGCGGUCUGAUGAGUCCGUGAGGACGAAACGG | 0.834

Variant | self-cleavage
ACCGGAUGUGCUUUCCGGUCUAAUGAGUCCGUGAGGACGAUACAG | 0.318
CCCGGAUGUGCUUUCCGGUCUGAUGAGUGCGUGAGGACGAAACAG | 0.341
ACAGGAUGUGCUUUCCGGUCUGAUGAGUCCGUAAGGACGAAACAG | 0.674
ACCGGAUGUGCCUUCCGGUCUGAUGAGACCGUGAGGACGAAACAG | 0.487
AACGGAUGUGCUUUCCGGUCUGAUGAGUCGGUGAGGACGAAACAG | 0.333
ACCGGAUGUGCUUUCCGGUCUGAUGAGUCCGUGAGGUCGAAUCAG | 0.327
ACCGGAUGUGCUAUCCGGUCUGAUGAGUCCGUGAGGACGAAAUAG | 0.614
ACCGGAUUUGCUUUCCGGUCGGAUGAGUCCGUGAGGACGAAACAG | 0.571
ACCGGGUGUGCUUUCCGGUCUGAUGAAUCCGUGAGGACGAAACAG | 0.657
ACCGGAUGUGCUUUCCGGACUGACGAGUCCGUGAGGACGAAACAG | 0.362
ACCGGAUGUGCUUUCCGGUCUGAUUAGUCCGUUAGGACGAAACAG | 0.325
ACCGGAUGGGCUUUCCGGUCUGAUGAGUCCGUGAGGACGAAACAC | 0.462
ACCGGAUGUGCUUUCCGGUCUGAUGAAUCCGUGAUGACGAAACAG | 0.411
ACCGGGUGUGCUUUCCGAUCUGAUGAGUCCGUGAGGACGAAACAG | 0.486
ACCGGAUGUGCUUUCCGGUCUGAUGAGUACGUGAGGACGAAACAG | 0.708
ACCGGAUGUGCUUUCCGGUCUGAAGAGUCCGUCAGGACGAAACAG | 1.21
ACCGGAUGAGCUUUCCGGUCUGAUGAGUCCGUGAGGACGAAACUG | 0.557
ACCGUAUGUGCUUUCCGGUCUGAUGAGUUCGUGAGGACGAAACAG | 0.682
ACCGGAUGUGCUUUCCGGACUGAUGAGUCCGUGAGGACGAGACAG | 0.312

Variant | self-cleavage
CACGGAUGUGCUUUCCGGUCUGAUGAGUCCGUGAGGACGAAACAG | 1.75
CCCGGAUGUGCUUUCCGGUCUGAUGAGUCCGUGAUGACGAAACAG | 0.435
AGCGGAUGUGCUUUCCGGUCCGAUGAGUCCGUGAGGACGAAACAG | 0.329
ACCGGAUGUGCUUUCCGGUAUGAUGAGUCCGUGAGGACGAAACAC | 0.414
ACCGUAUGUGCUUUCCGGUCUGAUGAGUCCGUGAGGACGAUACAG | 0.332
ACCGGAUGUGCUUUCCGGUCUGAUGAGUCCGUGAGGAGGAAUCAG | 0.354
GCCGGAUGUGCUUGCCGGUCUGAUGAGUCCGUGAGGACGAAACAG | 1.85
ACCGGAUGUGCUUUCCGGGCUGAUGAGUCCGUGAGGAAGAAACAG | 0.324
ACCGGAUGAGCUUUCCGGUCUGAUGAGUCCGUGAAGACGAAACAG | 0.751
ACCGGAUGUGCUUUCCGGUCCGAUGAGUCCGUGCGGACGAAACAG | 0.316
ACCGGAUGUGCUUUCCGGUCUAAUGAGUCCGUGAGGAGGAAACAG | 0.329
ACCGGAUGUGCUUUCCGGUCUGAUGAGUCCGUGAGGACGAAGCUG | 0.233
ACCGGAUGUGCUCUCCGGUCUGAUGAGUCUGUGAGGACGAAACAG | 1.24
ACCGGAUGUGCUUUCCGGUCUCAUGAGUCCGUCAGGACGAAACAG | 0.381
ACCCGAUGUGCUUUCCGGUCUGAUGAGUCCGGGAGGACGAAACAG | 0.324
ACCGGAUGUGCUUUCCAGUCUGAUGAUUCCGUGAGGACGAAACAG | 0.495
ACCGGAUGUGCUUGCCGGUCUGAUGAGUCCGUUAGGACGAAACAG | 0.678
ACUGGAUGUGCUUUCCGGUCUGAUGAGUCCGUGAGGACGAAAAAG | 0.344
ACCGGGUGUGCUUUCCGGCCUGAUGAGUCCGUGAGGACGAAACAG | 0.486

— the RNAGym collection of RNA variant scans (doi:10.7554/elife.80360)
